Measurements reported in patent publication US7858577B2, “Use of the long pentraxin PTX3 for the treatment of diseases caused by an altered activation of the growth factor FGF-2” (Sigma-Tau Industrie Farmaceutiche Riunite S.p.A., priority 2000, dated 2010).

How the values were obtained:
MAE3F2T cells = experiment: Effect on FGF-2 dependent autocrine proliferation of MAE3F2T cells; format: cell-based, murine; details: 72 h in 0.4% FCS; PTX3 70 nM, suramin 50 μg/ml, anti FGF-2 antibodies; cell counting
Description: In this experiment we have investigated the effect of PTX3 on the proliferation of the murine aortic endothelial cell line MAE3F2T stably transfected with an expression vector coding for FGF-2 (Gualandris et al. 1996, Cell Growth Diff. 7:147-60). These cells can proliferate in response to a autocrine loop of stimulation induced by endogenous FGF-2 (Gualandris et al. 1996, Cell Growth Diff. 7:14760). MAE3F2T cells were seeded at 10,000/cm^2 in 48-well plates in Dulbecco medium (DMEM) added with 10% FCS. After 24 h at 37° C., adherent cells were washed twice with DMEM without FCS and incubated for 72 at 37° C. in DMEM containing 0.4% FCS in the presence or not of PTX3 (70 nM), anti FGF-2 specific antibodies or suramin (50 μg/ml). Suramin is known for its capacity to sequestrate extracellular FGF-2 and inhibits its biological activities (Rusnati et al., 1996, Mol. Biol. Cell. 7:369-381). At the end of incubation cells were trypsinized and counted in a Burker chamber.

FGF-2 [1] = target: T1, FGF-2 (Homo sapiens, UniProt P09038); experiment: 125I-FGF-2 binding to plastic immobilised proteins; details: wells coated with 200 nM PTX3 or CRP or 2 μg/ml control proteins, 30 ng 125I-FGF-2, 2 h room temperature
T1 construct: made in house
Description: (§1) 96 wells plates were coated at 4° C. with 100 μl of NaHCO3 pH 9.6 containing PTX3 or C reactive protein (200 nM) or alternatively 2 μg/ml of the following proteins used as negative control: bovine serum albumin, fibronectin, gelatine or laminin. After incubation, wells were washed 3 times with PBS and blocked 2 h at room temperature with 200 μl of 1 mg/ml of BSA in PBS. At the end of incubation wells were washed 3 times with PBS and subsequently incubated with 30 ng of ^125I-FGF-2 for 2 h at room temperature. Wells were subsequently washed 3 times with PBS and bound ^125I-FGF-2 was recovered by washing each well twice with 200 μl of 2% SDS in water. Levels of ^125I-FGF-2 were measured in a gamma counter.

FGF-2 [2] = target: T1, FGF-2; experiment: Capacity of biotinylated PTX3 to bind plastic immobilised FGF-2; format: binding; details: ELISA, streptavidin HRP, 405 nm
Description: 100 μl of NaHCO3 pH 9.6 containing 500 ng of FGF-2 or of the complement component C1q were incubated 18 h at 4° C. in 96 wells plastic plates. At the end of incubation wells were washed 3 times with PBS and subsequently incubated 2 h at room temperature with 200 μl of PBS containing 1 mg/ml of Bovine Serum Albumin (BSA). At the end of incubation wells were washed again 3 times with PBS and incubated with 30 ng/ml of ^125I-FGF-2 in presence of increasing amounts of biotinylated PTX3 in 100 μl of PBS (2 h at room temperature). Alternatively wells were adsorbed with increasing doses of FGF-2 or C1q and incubated with 100 ng/ml of biotinylated PTX3 in 100 μl of PBS. After this incubation wells were washed 3 times with PBS and incubated 1 h at room temperature with 100 μl of streptavidin HRP conjugate ( 1/2000). Reaction was developed by adding the chromogen microwell peroxidase substrate system ABTS (Kirkegaard & Perry Laboratories). Plates were read in an automatic ELISA reader at 405 nm.

[3] = target: T2, interaction between 125I-FGF-2 and plastic immobilised PTX3 (Homo sapiens, UniProt P09038+P26022); experiment: 125I-FGF-2 binding to plastic immobilised PTX3 in the presence of an excess of competitor; details: excess of competitor: FGF-2 or Cytocrome C 100 nM, soluble PTX3 300 nM
T2 construct: made in house
Description: as §1
In a second set of experiments the binding of ^125I-FGF-2 to plastic immobilised PTX3 has been tested in the presence of an excess of both native or heat denatured cold FGF-2 (100 nM), in the presence of similar Cytocrome C concentrations or in the presence of an excess of soluble PTX3 (300 nM).

T1 sequence (P09038 134-288): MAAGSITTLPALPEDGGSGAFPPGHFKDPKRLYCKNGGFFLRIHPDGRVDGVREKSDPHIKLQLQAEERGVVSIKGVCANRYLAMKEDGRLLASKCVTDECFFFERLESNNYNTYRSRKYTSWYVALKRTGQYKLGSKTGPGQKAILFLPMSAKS
T2 sequence (P09038 134-288): as above
T2 sequence (P26022 18-381): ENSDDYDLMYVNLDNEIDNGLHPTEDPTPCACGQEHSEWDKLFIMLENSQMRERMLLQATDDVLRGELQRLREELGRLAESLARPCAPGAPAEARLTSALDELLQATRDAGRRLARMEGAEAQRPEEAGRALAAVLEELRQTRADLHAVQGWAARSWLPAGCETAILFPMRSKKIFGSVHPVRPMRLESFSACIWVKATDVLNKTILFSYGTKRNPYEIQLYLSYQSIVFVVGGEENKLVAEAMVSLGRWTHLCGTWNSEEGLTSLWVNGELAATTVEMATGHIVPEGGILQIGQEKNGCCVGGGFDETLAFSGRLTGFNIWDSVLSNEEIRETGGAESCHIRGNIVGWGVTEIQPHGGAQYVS

In the case of `Cc1ccc(C(=O)Nc2ccc(S(=O)(=O)O)c3cc(S(=O)(=O)O)cc(S(=O)(=O)O)c23)cc1NC(=O)c1cccc(NC(=O)Nc2cccc(C(=O)Nc3cc(C(=O)Nc4ccc(S(=O)(=O)O)c5cc(S(=O)(=O)O)cc(S(=O)(=O)O)c45)ccc3C)c2)c1` [suramin, reference compound], the “inhibition of FGF-2 dependent proliferation of MAE3F2T cells” value (MAE3F2T cells) is reported as “in a manner similar to that exerted by anti FGF-2 antibodies and suramin”.

“CRP: short pentraxin homologous to PTX3, used as comparison protein” was tested, and the “binding of 125I-FGF-2 to plastic immobilised protein” value (FGF-2 [1]) was “reacts poorly” and the “binding of 125I-FGF-2 to plastic immobilised protein” value (FGF-2 [1]; listed as C-reactive protein) was “does not bind FGF-2”.

“biotinylated PTX3: PTX3 labelled with biotin for the ELISA binding test” was tested, and the “binding of biotinylated PTX3 to plastic immobilised FGF-2” value (FGF-2 [2]) was “FGF-2 immobilised on plastic wells is able to bind biotinylated PTX3”.

“cold FGF-2: human recombinant growth factor FGF-2, unlabelled, used as competitor” was tested, and the “inhibition of the interaction between 125I-FGF-2 and plastic immobilised PTX3” value [3] was “inhibited the interaction”.

“heat-inactivated FGF-2: heat denatured unlabelled FGF-2 used as competitor” was tested, and the “inhibition of the interaction between 125I-FGF-2 and plastic immobilised PTX3” value [3] was “not able to bind PTX3”.
